What was measured:
[1] = target: T1, EGFI-Cr1 Q24A (human, UniProt P16422 25-63); assay: direct ELISA, coated EGFI-Cr1 fusion, 0.1 µg/ml antibody
T1 construct: not shown: The fused constant region of human immunoglobulin gamma 1 heavy chain (Cr1)
T1 chain: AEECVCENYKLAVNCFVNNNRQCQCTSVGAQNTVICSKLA
Description: (§1) A direct ELISA was used for testing the reactivity of anti-EpCAM antibodies toward variant EpCAM mutants. Briefly, purified EpCAM EGF-1 fusion proteins (WT, Q24A, E25K, E26D, A35T, N37R, F39A, V40E, N41A, N42E, N43A, R44G, Q45A, Q47A or T49A) and irrelevant control (CEA-Cr1) were pre-diluted to 0.5 μg/ml in coating buffer (8.4 g NaHCO₃, 3.4 g Na₂CO₃ in 1 L H₂O, pH 9.5) and aliquoted (100 μl/well) into 96-well plates. […] Plates were then washed 3 times with PBST followed by the addition of the enzyme substrate TMB (BD Biosciences, Cat. No. 555214). […] The optical densities at 450 nm wavelength were measured on an ELISA plate reader.

[2] = target: T2, EGFI-Cr1 N37R (human); assay: as above
T2 construct: not shown: The fused constant region of human immunoglobulin gamma 1 heavy chain (Cr1)
T2 chain: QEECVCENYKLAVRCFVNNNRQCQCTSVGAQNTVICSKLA
Description: as §1

[3] = target: T3, EGFI-Cr1 E25K (human, UniProt P16422 24-63); assay: as above
T3 construct: not shown: The fused constant region of human immunoglobulin gamma 1 heavy chain (Cr1)
T3 chain: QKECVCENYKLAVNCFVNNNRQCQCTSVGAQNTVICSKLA
Description: as §1

[4] = target: T4, EGFI-Cr1 wild type (first EGF-like repeat of human EpCAM fused to the constant region of human immunoglobulin … (human, UniProt P01857-1 99-330 = IgG part)); assay: as above
T4 construct: cDNA covered aa 1-63; Expressed in COS-7 cells; also called WT; EpCAM EGF-1 fusion protein WT
Description: as §1

[5] = target: T5, EGFI-Cr1 N41A (human, UniProt P16422 24-63); assay: as above
T5 construct: not shown: The fused constant region of human immunoglobulin gamma 1 heavy chain (Cr1)
T5 chain: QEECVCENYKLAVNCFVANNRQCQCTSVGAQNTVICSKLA
Description: as §1

[6] = target: T6, EGFI-Cr1 F39A (human, UniProt P16422 24-63); assay: as above
T6 construct: not shown: The fused constant region of human immunoglobulin gamma 1 heavy chain (Cr1)
T6 chain: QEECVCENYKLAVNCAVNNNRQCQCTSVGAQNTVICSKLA
Description: as §1

[7] = target: T7, EGFI-Cr1 N43A (human, UniProt P16422 24-63); assay: as above
T7 construct: not shown: the constant region of human immunoglobulin gamma 1 heavy chain (Cr1) fused at the C-terminus
T7 chain: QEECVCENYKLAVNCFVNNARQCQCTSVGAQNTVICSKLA
Description: as §1

[8] = target: T8, EGFI-Cr1 Q47A (human, UniProt P16422 24-63); assay: as above
T8 construct: not shown: the constant region of human immunoglobulin gamma 1 heavy chain (Cr1) fused at the C-terminus
T8 chain: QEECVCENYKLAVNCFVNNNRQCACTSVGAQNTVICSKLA
Description: as §1

[9] = target: T9, EGFI-Cr1 V40E (human); assay: as above
T9 construct: not shown: The fused constant region of human immunoglobulin gamma 1 heavy chain (Cr1)
T9 chain: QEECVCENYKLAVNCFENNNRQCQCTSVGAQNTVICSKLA
Description: as §1

[10] = target: T10, EGFI-Cr1 N42E (human, UniProt P16422 24-63); assay: as above
T10 construct: not shown: the constant region of human immunoglobulin gamma 1 heavy chain (Cr1) fused at the C-terminus
T10 chain: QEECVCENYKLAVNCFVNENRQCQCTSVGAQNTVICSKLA
Description: as §1

[11] = target: T11, EGFI-Cr1 Q45A (human, UniProt P16422 24-63); assay: as above
T11 construct: not shown: the constant region of human immunoglobulin gamma 1 heavy chain (Cr1) fused at the C-terminus
T11 chain: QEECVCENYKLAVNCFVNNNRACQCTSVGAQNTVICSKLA
Description: as §1

[12] = target: T12, EGFI-Cr1 R44G (human, UniProt P16422 24-63); assay: as above
T12 construct: not shown: the constant region of human immunoglobulin gamma 1 heavy chain (Cr1) fused at the C-terminus
T12 chain: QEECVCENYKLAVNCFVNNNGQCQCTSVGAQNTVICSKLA
Description: as §1

[13] = target: T13, EGFI-Cr1 A35T (human, UniProt P16422 24-63); assay: as above
T13 construct: not shown: The fused constant region of human immunoglobulin gamma 1 heavy chain (Cr1)
T13 chain: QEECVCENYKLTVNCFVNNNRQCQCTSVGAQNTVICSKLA
Description: as §1

[14] = target: T14, EGFI-Cr1 E26D (human, UniProt P16422 24-63); assay: as above
T14 construct: not shown: The fused constant region of human immunoglobulin gamma 1 heavy chain (Cr1)
T14 chain: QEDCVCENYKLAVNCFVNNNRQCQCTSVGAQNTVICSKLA
Description: as §1

[15] = target: T15, EGFI-Cr1 T49A (human, UniProt P16422 24-63); assay: as above
T15 construct: not shown: the constant region of human immunoglobulin gamma 1 heavy chain (Cr1) fused at the C-terminus
T15 chain: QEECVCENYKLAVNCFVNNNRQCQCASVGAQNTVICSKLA
Description: as §1

[16] = target: T16, human EpCAM (epithelial cell adhesion/activating molecule) (human, UniProt P16422 24-314); assay: cell-based or functional assay
T16 sequence: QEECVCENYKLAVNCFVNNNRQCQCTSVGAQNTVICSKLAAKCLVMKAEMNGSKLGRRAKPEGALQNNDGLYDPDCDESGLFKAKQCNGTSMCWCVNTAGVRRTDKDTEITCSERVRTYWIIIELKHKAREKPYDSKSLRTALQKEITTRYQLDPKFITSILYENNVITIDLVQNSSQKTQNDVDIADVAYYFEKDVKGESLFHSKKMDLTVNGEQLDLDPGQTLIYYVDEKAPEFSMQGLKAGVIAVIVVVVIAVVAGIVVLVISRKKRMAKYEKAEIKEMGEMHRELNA

[17] = target: T16, human EpCAM (epithelial cell …); assay: flow cytometry, CHO/EpCAM cells, 0.1 µg/ml antibody
Description: A 300× dilution of human cell hyper-immune serum (HPS 300×) was used as binding positive control for both cell lines here. After 1 hr incubation at 4° C., cells were washed twice with 200 μl FACS buffer (1×PBS containing 1% FBS), stained with 100 μl of 1 μg/ml goat-anti-mouse IgG-PE (Southern Biotech, Cat. No. 1032-09) in FACS buffer and then incubated at 4° C. for 30 min. Cells were washed thrice with FACS buffer and analyzed by flow cytometry (BD LSR, BD Life Sciences).

[18] = target: T16, human EpCAM (epithelial cell …); assay: cell-based or functional assay; remark: listed apart in the source

- relative binding activity (% of WT) [1]: 0%
- relative binding activity (% of WT) [2]: 94%
- relative binding activity (% of WT) [3]: 1%
- relative binding activity (% of WT) [4]: 100%
- relative binding activity (% of WT) [5]: 81%
- relative binding activity (% of WT) [6]: 96%
- relative binding activity (% of WT) [7]: 96%
- relative binding activity (% of WT) [8]: 93%
- relative binding activity (% of WT) [9]: 93%
- relative binding activity (% of WT) [10]: 23%
- relative binding activity (% of WT) [11]: 89%
- relative binding activity (% of WT) [12]: 91%
- relative binding activity (% of WT) [13]: 95%
- relative binding activity (% of WT) [14]: 94%
- relative binding activity (% of WT) [15]: 94%
- % Annexin V/PI-positive cells, DLD-1, 1.0 µg/ml mAb [16]: 61%
- % Annexin V/PI-positive cells, DLD-1, 3.0 µg/ml mAb [16]: 67%
- % Annexin V/PI-positive cells, DLD-1, 10 µg/ml mAb [16]: 72%
- % Annexin V/PI-positive cells, FaDu, 1.0 µg/ml mAb [16]: 42%
- % Annexin V/PI-positive cells, FaDu, 3.0 µg/ml mAb [16]: 43%
- % Annexin V/PI-positive cells, FaDu, 10 µg/ml mAb [16]: 44%
- % Annexin V/PI-positive cells, LNCaP, 1.0 µg/ml mAb [16]: 61%
- % Annexin V/PI-positive cells, LNCaP, 3.0 µg/ml mAb [16]: 67%
- % Annexin V/PI-positive cells, LNCaP, 10 µg/ml mAb [16]: 58%
- % Annexin V/PI-positive cells, NCI-H520, 1.0 µg/ml mAb [16]: 24%
- % Annexin V/PI-positive cells, NCI-H520, 3.0 µg/ml mAb [16]: 29%
- % Annexin V/PI-positive cells, NCI-H520, 10 µg/ml mAb [16]: 34%
- % Annexin V/PI-positive cells, NCI-N87, 1.0 µg/ml mAb [16]: 67%
- % Annexin V/PI-positive cells, NCI-N87, 3.0 µg/ml mAb [16]: 62%
- % Annexin V/PI-positive cells, NCI-N87, 10 µg/ml mAb [16]: 66%
- % Annexin V/PI-positive cells, NIH:OVCAR-3, 1.0 µg/ml mAb [16]: 59%
- % Annexin V/PI-positive cells, NIH:OVCAR-3, 3.0 µg/ml mAb [16]: 62%
- % Annexin V/PI-positive cells, NIH:OVCAR-3, 10 µg/ml mAb [16]: 63%
- % Annexin V/PI-positive cells, T-47D, 1.0 µg/ml mAb [16]: 49%
- % Annexin V/PI-positive cells, T-47D, 3.0 µg/ml mAb [16]: 54%
- % Annexin V/PI-positive cells, T-47D, 10 µg/ml mAb [16]: 56%
- MFI [17]: 6650 MFI
- % of Annexin V + PI staining (untreated background subtracted), NCI-H358, 10 µg/ml mAb, Exp1 [18]: 36%
- % of Annexin V + PI staining (untreated background subtracted), NCI-H358, 10 µg/ml mAb, Exp2 [18]: 33%
- % of Annexin V + PI staining (untreated background subtracted), NCI-H358, 10 µg/ml mAb, Exp3 [18]: 31%
- % of Annexin V + PI staining (untreated background subtracted), NCI-H358, 10 µg/ml mAb, Exp4 [18]: 40%
- % of Annexin V + PI staining (untreated background subtracted), NCI-H358, 10 µg/ml mAb, Exp5 [18]: 28%
B1: murine monoclonal antibody 12H8 (antibody, mouse IgG2a, V domains shown)
VH: QIQLVQSGPELKKPGETVKISCKTSGYTFTDYSMHWVNQAPGKGLKWMGWINTETGEPTYTDDFKGRFAFSLETSASTAYLQINNLKNEDTATYFCARTAVYWGQGTTLTVSS
VL: DIQMTQSPSSLSASLGERVSLTCRASQEISGSLSWLQQKPDGTIKRLIYAASTLNSGVPKRFSGRRSGSDYSLTISSLESEDFVDYYCLQYSSYPWSFGGGTKLEIKR
notes: Mouse IgG2a, kappa, from hybridoma; also called m342-12H8.3; m12H8

Reference: patent US20110165161A1, “ANTI-EPCAM ANTIBODIES THAT INDUCE APOPTOSIS OF CANCER CELLS AND METHODS USING SAME” (priority 2009, published 2011)
